Experimental data taken from patent publication US20240279345A1, “ALPHA 5 BETA 1 INTEGRIN BINDING AGENTS AND USES THEREOF” (PASITHEA THERAPEUTICS CORP., priority 2021, published 2024).
Substitutions are numbered along the chain they refer to.

B1: A-4G02 (antibody, V domains shown)
VH: QVQLKESGPGLVAPSQSLSITCTISGFSLTSYGVHWVRQPPGKGLEWLVVIWSDGSTTYNSTLKSRLSISKDNSKSQVFFKMNSLQTDDTAMYYCARHYDYDGDWFAYWGQGTLVTVSA
VL: QIVLTQSPAIMSASLGERVTMTCTASSRVSSNSLHWYQQKPGSSPKLWIYSTSNLASGVPARFSGSGSGTSYSLTISSMEAEDAATYYCHQYLRSPPTFGGGTKLEIK
notes: mouse hybridoma antibody
B2: A-3A08 (antibody, V domains shown)
VH: QVQLKESGPGLVAPSQSLSITCTISGFSLTTYGVHWVRQPPGKGLEWLVVIWSDGSTTYNSALKSRLNITKDNSKSQVFLKMNSLQTDDTAMYYCVRHGGLLRRDAMDYWGQGTSVTVSS
VL: B1 VL with R28S, L34F, I49L
notes: mouse hybridoma antibody
B3: A-7D06 (antibody, V domains shown)
VH: B2 VH
VL: B1 VL with R28S, L34F, I49L
notes: mouse hybridoma antibody
B4: A-11G01 (antibody, V domains shown)
VH: B2 VH
VL: B1 VL with R28S, L34F, I49L
notes: mouse hybridoma antibody
B5: A-14G08 (antibody, V domains shown)
VH: QVQLQQPGAELVKPGASVKLSCKASGYTFTIYWINWVKQRPGQGLEWIGKIYPGSISTDYNEKFKSKATLTVDTSSSTAYMQLSSLTSDDSAVYYCAITGTGGLAYWGQGTLVTVSA
VL: ENVLTQSPAIMSASLGEKVTMTCRASSSVNYMYWYQQKSDASPKLWIYFTSSLAPGVPGRFSGSGSGNSYSLTISTMEGEDAATYYCQQFTTSPFTFGSGTKLEIK
notes: mouse hybridoma antibody
B6: A-15H11 (antibody, V domains shown)
VH: B5 VH
VL: B5 VL
notes: mouse hybridoma antibody
B7: C-8G11 (antibody, V domains shown)
VH: QVQLKESGPDLVAPSQSLSITCTVSGFSLTDYGVHWVRQPPGKGLEWLVVIWSDGSTTYNSALKSRLSITKDTSKRQVFLKMNSLQTDDTAMYYCARHAPSFIRYGSRYDALDYWGQGTSVTVSS
VL: B1 VL with M21L, R28S, S30T, N32S, S33F, L93H
notes: mouse hybridoma antibody
B8: A2-3B06 (antibody, V domains shown)
VH: B2 VH
VL: B1 VL with R28S, L34F, I49L
notes: mouse hybridoma antibody (supernatant, or purified by Protein A); also called antibody designated A2-3B06
B9: A-15B08 (antibody, V domains shown)
VH: B1 VH
VL: B1 VL
notes: mouse hybridoma antibody (supernatant, or purified by Protein A); NST N-glycosylation site in CDRH2; also called antibody designated A-15B08
B10: A2-5D10 (antibody, V domains shown)
VH: B1 VH with F80L
VL: B1 VL with V3L, R28S, N32R, S33C, S64R, L93Y
notes: mouse hybridoma antibody (supernatant, or purified by Protein A); also called antibody designated A2-5D10
B11: A-4G02 (antibody, V domains shown)
VH: B1 VH
VL: B1 VL
notes: mouse hybridoma
B12: A2-6C10 (antibody, V domains shown)
VH: B2 VH
VL: B1 VL with R28S, L34F, I49L
notes: mouse hybridoma
B13: A2-7A05 (antibody, V domains shown)
VH: B5 VH
VL: B5 VL
notes: mouse hybridoma antibody (supernatant, or purified by Protein A); also called antibody designated A2-7A05; A-7A05
B14: A-14G08 (antibody, V domains shown)
VH: B5 VH
VL: B5 VL
notes: mouse hybridoma
B15: A2-7F01 (antibody, V domains shown)
VH: B5 VH with K50N, I56S, D59N, S66T, L104F
VL: B5 VL with T22S, G59T, Y70F, T76S, F90L, T92G, K102R
notes: mouse hybridoma antibody (supernatant, or purified by Protein A); also called antibody designated A2-7F01
B16: A2-8H11 (antibody, V domains shown)
VH: B2 VH
VL: B1 VL with R28S, L34F, I49L
notes: mouse hybridoma
B17: A2-9A11 (antibody, V domains shown)
VH: B2 VH
VL: B1 VL with R28S, L34F, I49L
notes: mouse hybridoma
B18: C-8G11 (antibody, V domains shown)
VH: B7 VH
VL: B1 VL with M21L, R28S, S30T, N32S, S33F, L93H
notes: mouse hybridoma
B19: C-14D12 (antibody, V domains shown)
VH: B7 VH
VL: B1 VL with M21L, R28S, S30T, N32S, S33F, L93H
notes: mouse hybridoma antibody (supernatant, or purified by Protein A); also called antibody designated C-14D12; C-14D2
B20: A-7D06 (antibody, V domains shown)
VH: B2 VH
VL: B1 VL with R28S, L34F, I49L
notes: mouse hybridoma
B21: A-3A08 (antibody, V domains shown)
VH: B2 VH
VL: B1 VL with R28S, L34F, I49L
notes: mouse hybridoma
B22: A-11G01 (antibody, V domains shown)
VH: B2 VH
VL: B1 VL with R28S, L34F, I49L
notes: mouse hybridoma
B23: A-15H11 (antibody, V domains shown)
VH: B5 VH
VL: B5 VL
notes: mouse hybridoma
B24: A-3A08 (antibody, V domains shown)
VH: B2 VH
VL: B1 VL with R28S, L34F, I49L
B25: C-14D12 IgG4 Chimera (antibody, V domains shown)
VH: B7 VH
VL: B1 VL with M21L, R28S, S30T, N32S, S33F, L93H
B26: A-15B08 IgG4 Chimera (antibody, V domains shown)
VH: B1 VH
VL: B1 VL

The molecules below were run against T1, purified recombinant human α5β1 integrin heterodimer, 6×His tagged (rh-α5β1); Acro Biosystems, cat. no. … (human, UniProt P08648 42-995; P05556 21-728) (assay: BLI (Octet), supernatant mAb on anti-mouse IgG Fc sensor, 20 nM rh-α5β1).
T1 construct: bought recombinant heterodimer; also called rh-α5β1-6×His tagged protein; His-tagged-α5β1
T1 sequence (P08648 42-995 limits assumed, form in doubt, chain 1 of 2): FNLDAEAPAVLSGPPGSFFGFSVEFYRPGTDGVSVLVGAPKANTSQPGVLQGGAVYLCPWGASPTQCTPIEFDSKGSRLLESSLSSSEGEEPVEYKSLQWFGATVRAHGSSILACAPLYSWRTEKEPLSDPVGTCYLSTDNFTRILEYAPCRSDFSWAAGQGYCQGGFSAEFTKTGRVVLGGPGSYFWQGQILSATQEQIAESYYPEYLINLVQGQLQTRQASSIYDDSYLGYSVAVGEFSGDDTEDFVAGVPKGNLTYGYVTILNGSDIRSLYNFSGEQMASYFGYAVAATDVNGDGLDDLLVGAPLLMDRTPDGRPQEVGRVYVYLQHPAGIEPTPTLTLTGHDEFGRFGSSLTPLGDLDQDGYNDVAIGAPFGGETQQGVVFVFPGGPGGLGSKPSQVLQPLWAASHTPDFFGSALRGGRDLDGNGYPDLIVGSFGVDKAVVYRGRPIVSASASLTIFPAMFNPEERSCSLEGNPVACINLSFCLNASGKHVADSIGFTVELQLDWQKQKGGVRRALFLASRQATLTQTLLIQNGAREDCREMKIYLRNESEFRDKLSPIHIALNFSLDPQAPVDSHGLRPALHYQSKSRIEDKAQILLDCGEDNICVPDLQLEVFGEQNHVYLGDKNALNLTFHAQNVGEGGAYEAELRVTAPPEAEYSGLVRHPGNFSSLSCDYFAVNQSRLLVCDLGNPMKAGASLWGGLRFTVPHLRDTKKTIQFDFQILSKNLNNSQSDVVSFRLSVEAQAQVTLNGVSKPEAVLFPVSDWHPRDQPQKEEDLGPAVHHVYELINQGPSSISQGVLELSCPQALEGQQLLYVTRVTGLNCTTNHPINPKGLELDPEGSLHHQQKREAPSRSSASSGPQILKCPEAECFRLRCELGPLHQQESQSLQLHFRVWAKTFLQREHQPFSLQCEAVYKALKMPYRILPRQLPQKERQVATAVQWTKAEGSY
T1 sequence (P05556 21-728 limits assumed, form in doubt, chain 2 of 2): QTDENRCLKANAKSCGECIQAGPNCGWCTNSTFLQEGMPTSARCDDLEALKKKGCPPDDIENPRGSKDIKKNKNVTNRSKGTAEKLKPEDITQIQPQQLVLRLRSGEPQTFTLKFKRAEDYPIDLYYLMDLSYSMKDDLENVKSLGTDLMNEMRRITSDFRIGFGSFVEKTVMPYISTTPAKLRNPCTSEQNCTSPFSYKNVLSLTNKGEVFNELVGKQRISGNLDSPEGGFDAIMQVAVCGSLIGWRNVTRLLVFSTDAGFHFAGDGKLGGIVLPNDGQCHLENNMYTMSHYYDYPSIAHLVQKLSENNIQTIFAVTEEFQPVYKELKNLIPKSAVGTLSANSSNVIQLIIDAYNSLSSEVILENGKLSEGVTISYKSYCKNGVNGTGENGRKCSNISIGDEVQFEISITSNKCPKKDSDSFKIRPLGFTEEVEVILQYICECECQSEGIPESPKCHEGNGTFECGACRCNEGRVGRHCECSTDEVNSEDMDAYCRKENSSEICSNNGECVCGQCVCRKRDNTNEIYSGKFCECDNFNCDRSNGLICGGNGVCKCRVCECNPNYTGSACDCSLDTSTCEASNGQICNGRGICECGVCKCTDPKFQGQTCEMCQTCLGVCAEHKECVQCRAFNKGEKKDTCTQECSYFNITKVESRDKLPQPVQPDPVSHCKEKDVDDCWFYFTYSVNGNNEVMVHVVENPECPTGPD
Excerpt: Anti-Mouse IgG Fc biosensors were used to load each clone supernatant. Assay steps were as follows: Sensor Check (30s)-->Load Ab (700s)-->Quench (480s)-->Baseline(480s)-->Ab Assoc. (600s)-->Dissoc. (600s).
B1 gave a Kd of 1.23 nM, a koff of 0.000396 s⁻¹ and a kon of 321000 M⁻¹ s⁻¹. In the case of B2, the Kd is reported as 5.08 nM, the koff is reported as 0.00124 s⁻¹ and the kon is reported as 244000 M⁻¹ s⁻¹. With B3 the Kd was 4.75 nM, the koff was 0.00128 s⁻¹ and the kon was 270000 M⁻¹ s⁻¹. For B4, the Kd was 5.03 nM, the koff was 0.00132 s⁻¹ and the kon was 261000 M⁻¹ s⁻¹. For B5, the Kd was 0.845 nM, the koff was 0.000198 s⁻¹ and the kon was 234000 M⁻¹ s⁻¹. With B6 the Kd was 0.901 nM, the koff was 0.000193 s⁻¹ and the kon was 215000 M⁻¹ s⁻¹. Molecule B7 has a Kd of 0.442 nM, a koff of 0.00012 s⁻¹ and a kon of 271000 M⁻¹ s⁻¹.

The molecules below were run against T2, α5β1 integrin on cells (PMA-activated K562 cells; U87MG cells) (human, UniProt P08648 42-1049; P05556 21-798) (assay: flow cytometry on PMA-activated K562 cells, hybridoma supernatant).
T2 construct: Endogenous integrin of human cell lines; also called cellular α5β1 integrin; cell surface α5β1 integrin receptors
T2 sequence (P08648 42-1049 limits assumed, chain 1 of 2): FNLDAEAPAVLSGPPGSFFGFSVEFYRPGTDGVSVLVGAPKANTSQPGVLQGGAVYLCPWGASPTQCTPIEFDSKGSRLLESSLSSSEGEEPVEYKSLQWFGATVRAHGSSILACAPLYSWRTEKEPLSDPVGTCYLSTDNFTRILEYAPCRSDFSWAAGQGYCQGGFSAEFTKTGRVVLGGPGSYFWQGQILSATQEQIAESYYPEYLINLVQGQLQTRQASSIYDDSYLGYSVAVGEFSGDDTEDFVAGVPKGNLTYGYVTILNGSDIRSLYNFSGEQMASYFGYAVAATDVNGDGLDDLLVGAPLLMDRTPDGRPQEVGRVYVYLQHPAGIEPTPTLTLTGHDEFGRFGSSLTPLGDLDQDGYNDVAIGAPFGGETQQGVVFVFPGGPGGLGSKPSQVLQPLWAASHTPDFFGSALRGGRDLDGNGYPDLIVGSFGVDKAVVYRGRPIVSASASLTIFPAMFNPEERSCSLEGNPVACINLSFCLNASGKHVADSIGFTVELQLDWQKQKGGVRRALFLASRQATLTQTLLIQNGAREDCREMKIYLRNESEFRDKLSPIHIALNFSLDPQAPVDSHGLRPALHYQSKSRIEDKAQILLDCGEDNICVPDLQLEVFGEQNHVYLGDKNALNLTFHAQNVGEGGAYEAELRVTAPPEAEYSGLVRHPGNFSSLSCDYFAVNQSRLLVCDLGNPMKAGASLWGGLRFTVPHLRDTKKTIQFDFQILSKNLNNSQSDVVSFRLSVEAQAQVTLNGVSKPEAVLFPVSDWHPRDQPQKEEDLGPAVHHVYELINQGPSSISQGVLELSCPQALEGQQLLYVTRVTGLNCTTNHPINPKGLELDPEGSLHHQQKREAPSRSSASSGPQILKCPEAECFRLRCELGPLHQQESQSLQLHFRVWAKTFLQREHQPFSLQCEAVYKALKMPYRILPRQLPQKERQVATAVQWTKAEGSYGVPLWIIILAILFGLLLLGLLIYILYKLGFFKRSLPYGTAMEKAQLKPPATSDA
T2 sequence (P05556 21-798 limits assumed, chain 2 of 2): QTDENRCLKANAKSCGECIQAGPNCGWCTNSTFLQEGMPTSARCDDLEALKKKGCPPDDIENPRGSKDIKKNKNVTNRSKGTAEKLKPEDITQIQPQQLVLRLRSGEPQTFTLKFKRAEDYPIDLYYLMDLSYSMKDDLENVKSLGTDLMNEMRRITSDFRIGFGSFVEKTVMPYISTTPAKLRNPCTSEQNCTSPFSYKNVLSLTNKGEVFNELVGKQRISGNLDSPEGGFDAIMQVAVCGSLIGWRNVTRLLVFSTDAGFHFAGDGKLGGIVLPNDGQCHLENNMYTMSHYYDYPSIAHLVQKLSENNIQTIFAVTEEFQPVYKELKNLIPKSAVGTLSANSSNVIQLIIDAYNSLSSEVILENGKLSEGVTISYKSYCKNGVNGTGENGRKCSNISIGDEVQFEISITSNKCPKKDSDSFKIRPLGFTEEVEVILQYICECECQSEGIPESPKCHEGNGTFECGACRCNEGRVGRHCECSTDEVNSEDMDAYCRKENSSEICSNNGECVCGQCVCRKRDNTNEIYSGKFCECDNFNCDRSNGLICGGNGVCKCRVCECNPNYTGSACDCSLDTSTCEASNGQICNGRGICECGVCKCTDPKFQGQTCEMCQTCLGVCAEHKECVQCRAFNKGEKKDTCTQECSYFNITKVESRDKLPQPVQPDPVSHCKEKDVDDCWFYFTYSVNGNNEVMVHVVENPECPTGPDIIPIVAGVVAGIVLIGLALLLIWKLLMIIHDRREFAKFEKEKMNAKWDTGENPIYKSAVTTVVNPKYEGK
Method: Four weeks later cells from spleens and draining lymph nodes were fused to create hybridomas. […] In short, hybridoma supernatants were incubated with the activated K562 cells for 20 minutes, washed, then incubated with a fluorescent conjugated detecting antibody for 20 minutes, washed, resuspended in 7-Aminoactinomycin D, and Mean Fluorescence Intensity (MFI) measured on a Guava cytometer (Luminex Corporation, Austin, TX 78727).
Work on B8 yielded an MFI of 2140. B9 was tested, and the MFI was 1390. With B10 the MFI was 1890. Work on B11 yielded an MFI of 1980. B12 gave an MFI of 2120. For B13, the MFI was 5500. B14 showed an MFI of 4210. Molecule B15 has an MFI of 6260. B16 was tested, and the MFI was 4370. B17 showed an MFI of 3400. Work on B18 yielded an MFI of 2690. B19 was tested, and the MFI was 2020. With B20 the MFI was 742. With B21 the MFI was 1180. Work on B22 yielded an MFI of 1610. B23 showed an MFI of 6570.

These molecules were tested against T3, recombinant mouse α5β1 integrin (mouse, UniProt P11688 45-999; P09055 21-728) (assay: ELISA, coated integrin, supernatant 1:10).
T3 construct: bought recombinant heterodimer (R&D Systems cat. 7728-A5) coated on the plate; also called rm-α5β1
Method: Plates were washed 3 times with Wash Buffer (1× Tris Buffered Saline containing 0.05% Tween20), blocked with 2% BSA in 1×TBS (made from 10× Thermo Scientific Blocker BSA (10×) in TBS; Thermo Fisher Scientific, Waltham, MA, cat. no. 37520) for 2 hours at room temperature (RT) then incubated with hybridoma supernatants diluted 1:10 with Standard Diluent (2% BSA, 1×TBS, 0.05% Tween20). […] Absorbance 450 nm was measured.
B24 was tested, and the Absorbance 450 nm was 0.671 A450.

The molecules below were run against α5β1 integrin on U87MG cells (human, UniProt P08648 42-1049; P05556 21-798) (assay: cell-based or functional assay).
Work on IgG4 Isotype (antibody) yielded a Cell Counts (Curve Bottom) of 32000 cells and a Cell Counts (Curve Top) of 50000 cells. For B25, the “% Inhibition” value was 78%, the “Cell Counts (Curve Bottom)” value was 8040 cells and the “Cell Counts (Curve Top)” value was 37200 cells. B26 was tested, and the “% Inhibition” value was 86%, the “Cell Counts (Curve Bottom)” value was 4780 cells and the “Cell Counts (Curve Top)” value was 33800 cells.
